Source: PMC3290569, “Macro-to-Micro Structural Proteomics: Native Source Proteins for High-Throughput Crystallization” (PLoS ONE, 2012)

Target: the molecule itself
Experiment: crystal structure; native source E. coli proteins already in the PDB, identified and solved by brute-force molecular replacement, not refined except to confirm the solution; oligomer seen in the crystal

B1: Lysyl-tRNA synthetase (constitutive) (enzyme, Escherichia coli, UniProt P0A8N3 1-505, looked up)
chain: MSEQHAQGADAVVDLNNELKTRREKLANLREQGIAFPNDFRRDHTSDQLHAEFDGKENEELEALNIEVAVAGRMMTRRIMGKASFVTLQDVGGRIQLYVARDDLPEGVYNEQFKKWDLGDILGAKGKLFKTKTGELSIHCTELRLLTKALRPLPDKFHGLQDQEARYRQRYLDLISNDESRNTFKVRSQILSGIRQFMVNRGFMEVETPMMQVIPGGAAARPFITHHNALDLDMYLRIAPELYLKRLVVGGFERVFEINRNFRNEGISVRHNPEFTMMELYMAYADYKDLIELTESLFRTLAQDILGKTEVTYGDVTLDFGKPFEKLTMREAIKKYRPETDMADLDNFDSAKAIAESIGIHVEKSWGLGRIVTEIFEEVAEAHLIQPTFITEYPAEVSPLARRNDVNPEITDRFEFFIGGREIGNGFSELNDAEDQAQRFLDQVAAKDAGDDEAMFYDEDYVTALEHGLPPTAGLGIGIDRMVMLFTNSHTIRDVILFPAMRPVK
notes: lysyl-tRNA synthetase, constitutive form, Escherichia coli, native source protein; identified with PDB 1BBW; the PDB entry is the previously deposited structure that identified the protein; the crystallised protein is the native one; source: purified from E. coli DH5α cells (whole-proteome fractionation)
- binding result: binds

B2: MoaB (molybdopterin biosynthesis protein B) (natural protein, Escherichia coli, UniProt P0AEZ9 1-170, looked up)
chain: MSQVSTEFIPTRIAILTVSNRRGEEDDTSGHYLRDSAQEAGHHVVDKAIVKENRYAIRAQVSAWIASDDVQVVLITGGTGLTEGDQAPEALLPLFDREVEGFGEVFRMLSFEEIGTSTLQSRAVAGVANKTLIFAMPGSTKACRTAWENIIAPQLDARTRPCNFHPHLKK
notes: MoaB, molybdopterin biosynthesis protein B, Escherichia coli, native source protein; identified with PDB 1R2K; the PDB entry is the previously deposited structure that identified the protein; the crystallised protein is the native one; source: purified from E. coli DH5α cells (whole-proteome fractionation)
- binding result: binds

B3: Citrate synthase (enzyme, Escherichia coli, UniProt P0ABH7 1-427, looked up)
chain: MADTKAKLTLNGDTAVELDVLKGTLGQDVIDIRTLGSKGVFTFDPGFTSTASCESKITFIDGDEGILLHRGFPIDQLATDSNYLEVCYILLNGEKPTQEQYDEFKTTVTRHTMIHEQITRLFHAFRRDSHPMAVMCGITGALAAFYHDSLDVNNPRHREIAAFRLLSKMPTMAAMCYKYSIGQPFVYPRNDLSYAGNFLNMMFSTPCEPYEVNPILERAMDRILILHADHEQNASTSTVRTAGSSGANPFACIAAGIASLWGPAHGGANEAALKMLEEISSVKHIPEFVRRAKDKNDSFRLMGFGHRVYKNYDPRATVMRETCHEVLKELGTKDDLLEVAMELENIALNDPYFIEKKLYPNVDFYSGIILKAMGIPSSMFTVIFAMARTVGWIAHWSEMHSDGMKIARPRQLYTGYEKRDFKSDIKR
notes: citrate synthase, Escherichia coli, native source protein; identified with PDB 1NXG; the PDB entry is the previously deposited structure that identified the protein; the crystallised protein is the native one; source: purified from E. coli DH5α cells (whole-proteome fractionation)
- binding result: binds

B4: Catalase HPII (enzyme, Escherichia coli, UniProt P21179 1-753, looked up)
chain: MSQHNEKNPHQHQSPLHDSSEAKPGMDSLAPEDGSHRPAAEPTPPGAQPTAPGSLKAPDTRNEKLNSLEDVRKGSENYALTTNQGVRIADDQNSLRAGSRGPTLLEDFILREKITHFDHERIPERIVHARGSAAHGYFQPYKSLSDITKADFLSDPNKITPVFVRFSTVQGGAGSADTVRDIRGFATKFYTEEGIFDLVGNNTPIFFIQDAHKFPDFVHAVKPEPHWAIPQGQSAHDTFWDYVSLQPETLHNVMWAMSDRGIPRSYRTMEGFGIHTFRLINAEGKATFVRFHWKPLAGKASLVWDEAQKLTGRDPDFHRRELWEAIEAGDFPEYELGFQLIPEEDEFKFDFDLLDPTKLIPEELVPVQRVGKMVLNRNPDNFFAENEQAAFHPGHIVPGLDFTNDPLLQGRLFSYTDTQISRLGGPNFHEIPINRPTCPYHNFQRDGMHRMGIDTNPANYEPNSINDNWPRETPPGPKRGGFESYQERVEGNKVRERSPSFGEYYSHPRLFWLSQTPFEQRHIVDGFSFELSKVVRPYIRERVVDQLAHIDLTLAQAVAKNLGIELTDDQLNITPPPDVNGLKKDPSLSLYAIPDGDVKGRVVAILLNDEVRSADLLAILKALKAKGVHAKLLYSRMGEVTADDGTVLPIAATFAGAPSLTVDAVIVPCGNIADIADNGDANYYLMEAYKHLKPIALAGDARKFKATIKIADQGEEGIVEADSADGSFMDELLTLMAAHRVWSRIPKIDKIPA
notes: catalase HPII, Escherichia coli, native source protein; identified with PDB 1GG9; the PDB entry is the previously deposited structure that identified the protein; the crystallised protein is the native one; source: purified from E. coli DH5α cells (whole-proteome fractionation)
- binding result: binds

B5: heat shock protein 31 (HSP31) (natural protein, Escherichia coli, UniProt P31658 1-283, looked up)
chain: MTVQTSKNPQVDIAEDNAFFPSEYSLSQYTSPVSDLDGVDYPKPYRGKHKILVIAADERYLPTDNGKLFSTGNHPIETLLPLYHLHAAGFEFEVATISGLMTKFEYWAMPHKDEKVMPFFEQHKSLFRNPKKLADVVASLNADSEYAAIFVPGGHGALIGLPESQDVAAALQWAIKNDRFVISLCHGPAAFLALRHGDNPLNGYSICAFPDAADKQTPEIGYMPGHLTWYFGEELKKMGMNIINDDITGRVHKDRKLLTGDSPFAANALGKLAAQEMLAAYAG
notes: Hsp31, Escherichia coli, native source protein; identified with PDB 1N57; the PDB entry is the previously deposited structure that identified the protein; the crystallised protein is the native one; source: purified from E. coli DH5α cells (whole-proteome fractionation)
- binding result: binds

B6: Malate dehydrogenase (enzyme, Escherichia coli, UniProt P61889 1-312, looked up)
chain: MKVAVLGAAGGIGQALALLLKTQLPSGSELSLYDIAPVTPGVAVDLSHIPTAVKIKGFSGEDATPALEGADVVLISAGVARKPGMDRSDLFNVNAGIVKNLVQQVAKTCPKACIGIITNPVNTTVAIAAEVLKKAGVYDKNKLFGVTTLDIIRSNTFVAELKGKQPGEVEVPVIGGHSGVTILPLLSQVPGVSFTEQEVADLTKRIQNAGTEVVEAKAGGGSATLSMGQAAARFGLSLVRALQGEQGVVECAYVEGDGQYARFFSQPLLLGKNGVEERKSIGTLSAFEQNALEGMLDTLKKDIALGEEFVNK
notes: malate dehydrogenase, Escherichia coli, native source protein; identified with PDB 2PWZ; the PDB entry is the previously deposited structure that identified the protein; the crystallised protein is the native one; source: purified from E. coli DH5α cells (whole-proteome fractionation)
- binding result: binds

B7: Cystathione gamma-synthase (enzyme, Escherichia coli, UniProt P00935 1-386, looked up)
chain: MTRKQATIAVRSGLNDDEQYGCVVPPIHLSSTYNFTGFNEPRAHDYSRRGNPTRDVVQRALAELEGGAGAVLTNTGMSAIHLVTTVFLKPGDLLVAPHDCYGGSYRLFDSLAKRGCYRVLFVDQGDEQALRAALAEKPKLVLVESPSNPLLRVVDIAKICHLAREVGAVSVVDNTFLSPALQNPLALGADLVLHSCTKYLNGHSDVVAGVVIAKDPDVVTELAWWANNIGVTGGAFDSYLLLRGLRTLVPRMELAQRNAQAIVKYLQTQPLVKKLYHPSLPENQGHEIAARQQKGFGAMLSFELDGDEQTLRRFLGGLSLFTLAESLGGVESLISHAATMTHAGMAPEARAAAGISETLLRISTGIEDGEDLIADLENGFRAANKG
notes: cystathionine gamma-synthase (printed: Cystathione gamma-synthase), Escherichia coli, native source protein; identified with PDB 1CS1; the PDB entry is the previously deposited structure that identified the protein; the crystallised protein is the native one; source: purified from E. coli DH5α cells (whole-proteome fractionation)
- binding result: binds

B8: Dihydrodipicolinate synthase (enzyme, Escherichia coli, UniProt P0A6L2 1-292, looked up)
chain: MFTGSIVAIVTPMDEKGNVCRASLKKLIDYHVASGTSAIVSVGTTGESATLNHDEHADVVMMTLDLADGRIPVIAGTGANATAEAISLTQRFNDSGIVGCLTVTPYYNRPSQEGLYQHFKAIAEHTDLPQILYNVPSRTGCDLLPETVGRLAKVKNIIGIKEATGNLTRVNQIKELVSDDFVLLSGDDASALDFMQLGGHGVISVTANVAARDMAQMCKLAAEGHFAEARVINQRLMPLHNKLFVEPNPIPVKWACKELGLVATDTLRLPMTPITDSGRETVRAALKHAGLL
notes: dihydrodipicolinate synthase, Escherichia coli, native source protein; identified with PDB 1DHP; the PDB entry is the previously deposited structure that identified the protein; the crystallised protein is the native one; source: purified from E. coli DH5α cells (whole-proteome fractionation)
- binding result: binds
